T1: human CEACAM5 expressed on the surface of tumor cells (human, UniProt P06731 35-685)
T1 sequence: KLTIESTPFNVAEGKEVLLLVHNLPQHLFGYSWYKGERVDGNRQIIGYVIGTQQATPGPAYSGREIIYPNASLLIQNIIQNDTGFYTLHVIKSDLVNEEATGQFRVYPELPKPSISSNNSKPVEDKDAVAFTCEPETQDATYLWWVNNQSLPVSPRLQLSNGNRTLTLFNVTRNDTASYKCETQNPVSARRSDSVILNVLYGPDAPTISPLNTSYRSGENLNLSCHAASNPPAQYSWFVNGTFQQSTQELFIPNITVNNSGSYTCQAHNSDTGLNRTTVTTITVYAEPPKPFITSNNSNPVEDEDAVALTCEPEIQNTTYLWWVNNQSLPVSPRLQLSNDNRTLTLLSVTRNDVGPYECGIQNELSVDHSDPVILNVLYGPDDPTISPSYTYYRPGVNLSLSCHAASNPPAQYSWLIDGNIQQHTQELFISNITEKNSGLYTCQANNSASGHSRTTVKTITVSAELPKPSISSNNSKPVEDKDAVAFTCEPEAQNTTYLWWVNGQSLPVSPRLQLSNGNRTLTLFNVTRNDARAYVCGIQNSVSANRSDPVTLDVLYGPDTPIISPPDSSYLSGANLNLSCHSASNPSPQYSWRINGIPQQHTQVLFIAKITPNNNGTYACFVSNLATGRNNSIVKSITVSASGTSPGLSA

T2: cCEACAM5, M. fascicularis CEACAM5 ECD (35-688) (Macaca fascicularis)
T2 construct: ECD followed by a 24 amino acid extension containing a His-Tag; also called cynomolgus CEACAM5; monkey CEACAM5
T2 chain: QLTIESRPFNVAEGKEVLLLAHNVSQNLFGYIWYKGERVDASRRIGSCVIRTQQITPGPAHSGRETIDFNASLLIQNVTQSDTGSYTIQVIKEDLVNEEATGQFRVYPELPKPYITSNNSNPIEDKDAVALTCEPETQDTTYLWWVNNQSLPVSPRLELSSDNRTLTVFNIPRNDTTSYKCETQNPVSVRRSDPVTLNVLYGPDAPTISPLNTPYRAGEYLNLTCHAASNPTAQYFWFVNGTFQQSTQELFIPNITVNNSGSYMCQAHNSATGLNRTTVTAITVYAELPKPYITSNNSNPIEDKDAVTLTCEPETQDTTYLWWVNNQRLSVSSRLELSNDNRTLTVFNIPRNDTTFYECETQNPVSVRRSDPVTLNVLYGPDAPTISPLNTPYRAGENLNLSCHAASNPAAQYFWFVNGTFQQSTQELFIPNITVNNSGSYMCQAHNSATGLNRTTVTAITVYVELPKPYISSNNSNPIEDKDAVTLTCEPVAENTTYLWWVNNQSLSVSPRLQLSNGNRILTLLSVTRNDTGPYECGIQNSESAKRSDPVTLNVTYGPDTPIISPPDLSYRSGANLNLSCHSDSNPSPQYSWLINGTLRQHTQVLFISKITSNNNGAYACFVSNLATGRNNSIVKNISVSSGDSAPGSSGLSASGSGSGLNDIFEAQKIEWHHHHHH

T3: hCEACAM5, human CEACAM5 ECD (35-685) (human, UniProt P06731 35-685)
T3 construct: produced in HEK293; also called human CEACAM5 protein; human CEACAM5 extracellular domain
T3 sequence: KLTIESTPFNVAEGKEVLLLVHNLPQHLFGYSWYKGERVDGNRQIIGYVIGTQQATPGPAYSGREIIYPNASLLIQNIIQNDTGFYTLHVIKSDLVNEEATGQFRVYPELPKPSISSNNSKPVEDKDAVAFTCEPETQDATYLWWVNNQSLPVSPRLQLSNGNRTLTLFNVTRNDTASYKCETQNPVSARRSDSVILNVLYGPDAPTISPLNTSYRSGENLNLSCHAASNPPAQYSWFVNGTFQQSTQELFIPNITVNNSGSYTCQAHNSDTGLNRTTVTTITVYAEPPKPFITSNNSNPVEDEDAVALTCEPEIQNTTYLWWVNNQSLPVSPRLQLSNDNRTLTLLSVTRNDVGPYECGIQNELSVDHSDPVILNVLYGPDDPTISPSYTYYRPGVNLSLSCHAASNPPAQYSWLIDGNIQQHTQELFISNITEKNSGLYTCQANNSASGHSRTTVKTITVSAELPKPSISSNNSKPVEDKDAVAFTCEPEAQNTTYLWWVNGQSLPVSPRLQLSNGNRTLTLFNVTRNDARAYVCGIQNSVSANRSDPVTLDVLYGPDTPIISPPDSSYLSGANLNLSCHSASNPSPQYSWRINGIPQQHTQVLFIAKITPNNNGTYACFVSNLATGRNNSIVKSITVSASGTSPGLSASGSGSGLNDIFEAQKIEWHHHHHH


Experiments:
[1] = target: T1, human CEACAM5 expressed on the surface …; experiment: cell-based or functional assay
[2] = target: T2, cCEACAM5, M. fascicularis CEACAM5 ECD …; experiment: ELISA, chimeric mAb
[3] = target: T3, hCEACAM5, human CEACAM5 ECD (35-685); experiment: ELISA, chimeric mAb
[4] = target: T1, human CEACAM5 expressed on the surface …; experiment: flow cytometry on CR-IGR-034P primary colon tumor cells
Procedure: (§1) Advanced human primary colon tumor CR-IGR-034P (Julien et al., Clin Cancer Res Oct. 1, 2012 18:5314-5328) was obtained from Patient-derived xenograft in mice. Tumor CR-IGR-034P was enzymatically dissociated using collagenase Type IV (Invitrogen; #17104-019) and deoxyribonuclease I (Invitrogen; #18047-019) for 1 h at […], Cell viability was estimated by Viacount application using Guava® easyCyte™ 8HT Flow Cytometry System. […] 100 μL/well of goat anti-mouse IgG conjugated with Alexa647 (Invitrogen; # A2135) or goat anti-human IgG conjugated with Alexa488 (Invitrogen; # A11013) was added for 45 min at 4° C. and washed three times with PBS 1% BSA. The antibody binding was evaluated after centrifugation and resuspension of cells by adding 200 pliwell PBS 1% BSA and read using Guava® easyCyte™ 8HT Flow Cytometry System. Apparent KD and EC50 values were estimated using BIOST@T-BINDING and BIOST@T-SPEED softwares, respectively.

[5] = target: T1, human CEACAM5 expressed on the surface …; experiment: apparent KD, flow cytometry on CR-IGR-034P primary colon tumor cells
Procedure: as §1

[6] = target: T2, cCEACAM5, M. fascicularis CEACAM5 ECD …; experiment: ELISA, coated CEACAM5
Procedure: (§2) All CEACAM5-specific mAbs were assessed for their ability to bind human and primate CEACAM5 protein by ELISA. Plates were coated with human or primate CEACAM5 protein, anti-hCEACAM5 mAbs were added to the plate and detected with rabbit anti-mouse IgG conjugated with horseradish peroxidase (Sigma; # A9044). The antibody binding was visualized by adding TMB-H2O2 buffer and read at a wavelength of 450 nm.

[7] = target: T3, hCEACAM5, human CEACAM5 ECD (35-685); experiment: ELISA, coated CEACAM5
Procedure: as §2

Binder | EC50 [2] [nM] | EC50 [3] [nM] | Cytotoxic activity IC50 (nM) on MKN45 cells [1] [nM] | other results
MAb1-SPDB-DM4 (other, maytansinoid DM4 conjugated through SPDB linker; attachment residues not stated) VH: EVMLVESGGGLVKPGGSLKLSCAASGFTFSSYAMSWVRQTPEKRLEWVATISSGGSYIYYLDSVKGRFTISRDNAKNTLYLQMSSLRSEDTAMYYCARPAYYGNPAMDYWGQGTSVTVSS VL: DILMTQSQKFMSTSVGDRVSVTCKASQNVGTNVAWYQQKPGQSPKPLIYSASYRYSGVPDRFTGSGSGTDFTLTISNVQSEDLAEYFCQQYNSYPLYTFGGGTKLEIK |  |  | 0.89 | 
MAb3-SPDB-DM4 (other, maytansinoid DM4 conjugated through SPDB linker; attachment residues not stated) VH: EVKLVESGGGLVKPGGSLTLPCAASGFTFSRYAMSWVRQTPEKRLEWVASISSGGDTYYPDSVKGRFTVSRDNARNILFLQMSSLRSEDTGMYYCARVNYYDSSFLDWWGQGTTLTVSS VL: DIVMTQSQRFMSTLEGDRVSVTCKASQNVGTNVAWYQQKPGQSPKALIYSASYRYSGVPDRFTGSGSGTDFTLTISNVQSEDLAEYFCQQYNNYPLYTFGGGTKLEIK |  |  | 0.53 | 
MAb5-SPDB-DM4 (other, maytansinoid DM4 conjugated through SPDB linker; attachment residues not stated) VH: ELQLVESGGVLVKPGGSLKLSCAASGFAFSSYDMSWVRQTPEKRLEWVTYINSGGGITYYPDTVKGRFTISRDNARNTLYLQMSSLKSEDTAIYYCTAHYFGSSGPFAYWGQGTLVTVSA VL: DIQMTQSPASLSASVGETVTITCRASENIYSYLAWYQQKQGKSPQLLVYNAKTLTEGVPSRFSGSGSGTQFSLKINSLQPEDFGSYYCQHHYGTPFTFGSGTKLEIK |  |  | 0.24 | 
MAb4-SPDB-DM4 (other, maytansinoid DM4 conjugated through SPDB linker; attachment residues not stated) VH: EVQLVESGGGLVKPGGSLKLSCAASGFTFSSYDMSWVRQTPEKRLEWVAFISSYGGRTYYADTVKGRFTISRDNAKNTLYLQMSSLKSEDTAMFYCAAHYFGTSGPFAYWGQGTLVTVSA VL: DIQMTQSPASLSASVGETVTITCRASENIYSYFAWYQQKQGKSPQLLVYNAKILAEGVPSRFSGSGSGTQFSLKINSLQPEDFGTYYCQHHYGIPFTFGSGTKLELK |  |  | 0.96 | 
MAb2-SPDB-DM4 (other, maytansinoid DM4 conjugated through SPDB linker; attachment residues not stated) VH: EVQLQESGGVLVKPGGSLKLSCAASGFVFSSYDMSWVRQTPEKRLEWVAYISSGGGITYFPDTVQGRFTVSRDNAKNTLYLQMNSLKSEDTAIYYCAAHYFGSSGPFAYWGQGTLVTVSA VL: DIQMTQSPASLSASVGETVTITCRASENIFSYLAWYQQKQGKSPQLLVYNTKTLAEGVPSRFSGSGSGTQFSLKINSLQPEDFGSYYCQHHYGTPFTFGSGTKLEIK |  |  | 0.14 | 
antibody MAb2 (antibody, mouse IgG1, V domains shown, Murine IgG1, kappa; Rows are tied to the label as printed) VH: EVQLQESGGVLVKPGGSLKLSCAASGFVFSSYDMSWVRQTPEKRLEWVAYISSGGGITYFPDTVQGRFTVSRDNAKNTLYLQMNSLKSEDTAIYYCAAHYFGSSGPFAYWGQGTLVTVSA VL: DIQMTQSPASLSASVGETVTITCRASENIFSYLAWYQQKQGKSPQLLVYNTKTLAEGVPSRFSGSGSGTQFSLKINSLQPEDFGSYYCQHHYGTPFTFGSGTKLEIK |  |  |  | EC50 [4]: 0.53 nM; Kd [5]: 0.38 nM; EC50 [6]: 0.07 nM; Ratio c/h (EC50 on cCEACAM5 against EC50 on hCEACAM5) [6]: 0.5; EC50 [7]: 0.14 nM

Continued, in another order:

EC50 [2] [nM] | EC50 [3] [nM] | Binder | Cytotoxic activity IC50 (nM) on MKN45 cells [1] [nM] | other results
1.57 | 0.51 | chMAb1 (antibody, human IgG1, kappa, V domains shown, Chimeric, human IgG1 / Ckappa) VH: EVMLVESGGGLVKPGGSLKLSCAASGFTFSSYAMSWVRQTPEKRLEWVATISSGGSYIYYLDSVKGRFTISRDNAKNTLYLQMSSLRSEDTAMYYCARPAYYGNPAMDYWGQGTSVTVSS VL: DILMTQSQKFMSTSVGDRVSVTCKASQNVGTNVAWYQQKPGQSPKPLIYSASYRYSGVPDRFTGSGSGTDFTLTISNVQSEDLAEYFCQQYNSYPLYTFGGGTKLEIKR |  | 
0.13 | 0.18 | chMAb5 (antibody, human IgG1, kappa, V domains shown, Chimeric, human IgG1 / Ckappa) VH: ELQLVESGGVLVKPGGSLKLSCAASGFAFSSYDMSWVRQTPEKRLEWVTYINSGGGITYYPDTVKGRFTISRDNARNTLYLQMSSLKSEDTAIYYCTAHYFGSSGPFAYWGQGTLVTVSA VL: DIQMTQSPASLSASVGETVTITCRASENIYSYLAWYQQKQGKSPQLLVYNAKTLTEGVPSRFSGSGSGTQFSLKINSLQPEDFGSYYCQHHYGTPFTFGSGTKLEIKR |  | 
0.15 | 0.11 | chMab2K52R (antibody, human IgG1, kappa, V domains shown, Chimeric MAb2 with K52R in CDR2-L) VH: EVQLQESGGVLVKPGGSLKLSCAASGFVFSSYDMSWVRQTPEKRLEWVAYISSGGGITYFPDTVQGRFTVSRDNAKNTLYLQMNSLKSEDTAIYYCAAHYFGSSGPFAYWGQGTLVTVSA VL: DIQMTQSPASLSASVGETVTITCRASENIFSYLAWYQQKQGKSPQLLVYNTRTLAEGVPSRFSGSGSGTQFSLKINSLQPEDFGSYYCQHHYGTPFTFGSGTKLEIKR |  | 
0.12 | 0.14 | chMAb4 (antibody, human IgG1, kappa, V domains shown, Chimeric, human IgG1 / Ckappa) VH: EVQLVESGGGLVKPGGSLKLSCAASGFTFSSYDMSWVRQTPEKRLEWVAFISSYGGRTYYADTVKGRFTISRDNAKNTLYLQMSSLKSEDTAMFYCAAHYFGTSGPFAYWGQGTLVTVSA VL: DIQMTQSPASLSASVGETVTITCRASENIYSYFAWYQQKQGKSPQLLVYNAKILAEGVPSRFSGSGSGTQFSLKINSLQPEDFGTYYCQHHYGIPFTFGSGTKLELKR |  | 

— US20220340682A1 (Sanofi, published 2022)
